Data as given in publication PMC2116111.

Biological target: 420-kD polypeptide (human alpha 2-macroglobulin receptor) (human (endogenous in placenta)) (UniProt Q07954)
Test: ELISA

Sequence of UniProt Q07954 (Q07954 20-4544): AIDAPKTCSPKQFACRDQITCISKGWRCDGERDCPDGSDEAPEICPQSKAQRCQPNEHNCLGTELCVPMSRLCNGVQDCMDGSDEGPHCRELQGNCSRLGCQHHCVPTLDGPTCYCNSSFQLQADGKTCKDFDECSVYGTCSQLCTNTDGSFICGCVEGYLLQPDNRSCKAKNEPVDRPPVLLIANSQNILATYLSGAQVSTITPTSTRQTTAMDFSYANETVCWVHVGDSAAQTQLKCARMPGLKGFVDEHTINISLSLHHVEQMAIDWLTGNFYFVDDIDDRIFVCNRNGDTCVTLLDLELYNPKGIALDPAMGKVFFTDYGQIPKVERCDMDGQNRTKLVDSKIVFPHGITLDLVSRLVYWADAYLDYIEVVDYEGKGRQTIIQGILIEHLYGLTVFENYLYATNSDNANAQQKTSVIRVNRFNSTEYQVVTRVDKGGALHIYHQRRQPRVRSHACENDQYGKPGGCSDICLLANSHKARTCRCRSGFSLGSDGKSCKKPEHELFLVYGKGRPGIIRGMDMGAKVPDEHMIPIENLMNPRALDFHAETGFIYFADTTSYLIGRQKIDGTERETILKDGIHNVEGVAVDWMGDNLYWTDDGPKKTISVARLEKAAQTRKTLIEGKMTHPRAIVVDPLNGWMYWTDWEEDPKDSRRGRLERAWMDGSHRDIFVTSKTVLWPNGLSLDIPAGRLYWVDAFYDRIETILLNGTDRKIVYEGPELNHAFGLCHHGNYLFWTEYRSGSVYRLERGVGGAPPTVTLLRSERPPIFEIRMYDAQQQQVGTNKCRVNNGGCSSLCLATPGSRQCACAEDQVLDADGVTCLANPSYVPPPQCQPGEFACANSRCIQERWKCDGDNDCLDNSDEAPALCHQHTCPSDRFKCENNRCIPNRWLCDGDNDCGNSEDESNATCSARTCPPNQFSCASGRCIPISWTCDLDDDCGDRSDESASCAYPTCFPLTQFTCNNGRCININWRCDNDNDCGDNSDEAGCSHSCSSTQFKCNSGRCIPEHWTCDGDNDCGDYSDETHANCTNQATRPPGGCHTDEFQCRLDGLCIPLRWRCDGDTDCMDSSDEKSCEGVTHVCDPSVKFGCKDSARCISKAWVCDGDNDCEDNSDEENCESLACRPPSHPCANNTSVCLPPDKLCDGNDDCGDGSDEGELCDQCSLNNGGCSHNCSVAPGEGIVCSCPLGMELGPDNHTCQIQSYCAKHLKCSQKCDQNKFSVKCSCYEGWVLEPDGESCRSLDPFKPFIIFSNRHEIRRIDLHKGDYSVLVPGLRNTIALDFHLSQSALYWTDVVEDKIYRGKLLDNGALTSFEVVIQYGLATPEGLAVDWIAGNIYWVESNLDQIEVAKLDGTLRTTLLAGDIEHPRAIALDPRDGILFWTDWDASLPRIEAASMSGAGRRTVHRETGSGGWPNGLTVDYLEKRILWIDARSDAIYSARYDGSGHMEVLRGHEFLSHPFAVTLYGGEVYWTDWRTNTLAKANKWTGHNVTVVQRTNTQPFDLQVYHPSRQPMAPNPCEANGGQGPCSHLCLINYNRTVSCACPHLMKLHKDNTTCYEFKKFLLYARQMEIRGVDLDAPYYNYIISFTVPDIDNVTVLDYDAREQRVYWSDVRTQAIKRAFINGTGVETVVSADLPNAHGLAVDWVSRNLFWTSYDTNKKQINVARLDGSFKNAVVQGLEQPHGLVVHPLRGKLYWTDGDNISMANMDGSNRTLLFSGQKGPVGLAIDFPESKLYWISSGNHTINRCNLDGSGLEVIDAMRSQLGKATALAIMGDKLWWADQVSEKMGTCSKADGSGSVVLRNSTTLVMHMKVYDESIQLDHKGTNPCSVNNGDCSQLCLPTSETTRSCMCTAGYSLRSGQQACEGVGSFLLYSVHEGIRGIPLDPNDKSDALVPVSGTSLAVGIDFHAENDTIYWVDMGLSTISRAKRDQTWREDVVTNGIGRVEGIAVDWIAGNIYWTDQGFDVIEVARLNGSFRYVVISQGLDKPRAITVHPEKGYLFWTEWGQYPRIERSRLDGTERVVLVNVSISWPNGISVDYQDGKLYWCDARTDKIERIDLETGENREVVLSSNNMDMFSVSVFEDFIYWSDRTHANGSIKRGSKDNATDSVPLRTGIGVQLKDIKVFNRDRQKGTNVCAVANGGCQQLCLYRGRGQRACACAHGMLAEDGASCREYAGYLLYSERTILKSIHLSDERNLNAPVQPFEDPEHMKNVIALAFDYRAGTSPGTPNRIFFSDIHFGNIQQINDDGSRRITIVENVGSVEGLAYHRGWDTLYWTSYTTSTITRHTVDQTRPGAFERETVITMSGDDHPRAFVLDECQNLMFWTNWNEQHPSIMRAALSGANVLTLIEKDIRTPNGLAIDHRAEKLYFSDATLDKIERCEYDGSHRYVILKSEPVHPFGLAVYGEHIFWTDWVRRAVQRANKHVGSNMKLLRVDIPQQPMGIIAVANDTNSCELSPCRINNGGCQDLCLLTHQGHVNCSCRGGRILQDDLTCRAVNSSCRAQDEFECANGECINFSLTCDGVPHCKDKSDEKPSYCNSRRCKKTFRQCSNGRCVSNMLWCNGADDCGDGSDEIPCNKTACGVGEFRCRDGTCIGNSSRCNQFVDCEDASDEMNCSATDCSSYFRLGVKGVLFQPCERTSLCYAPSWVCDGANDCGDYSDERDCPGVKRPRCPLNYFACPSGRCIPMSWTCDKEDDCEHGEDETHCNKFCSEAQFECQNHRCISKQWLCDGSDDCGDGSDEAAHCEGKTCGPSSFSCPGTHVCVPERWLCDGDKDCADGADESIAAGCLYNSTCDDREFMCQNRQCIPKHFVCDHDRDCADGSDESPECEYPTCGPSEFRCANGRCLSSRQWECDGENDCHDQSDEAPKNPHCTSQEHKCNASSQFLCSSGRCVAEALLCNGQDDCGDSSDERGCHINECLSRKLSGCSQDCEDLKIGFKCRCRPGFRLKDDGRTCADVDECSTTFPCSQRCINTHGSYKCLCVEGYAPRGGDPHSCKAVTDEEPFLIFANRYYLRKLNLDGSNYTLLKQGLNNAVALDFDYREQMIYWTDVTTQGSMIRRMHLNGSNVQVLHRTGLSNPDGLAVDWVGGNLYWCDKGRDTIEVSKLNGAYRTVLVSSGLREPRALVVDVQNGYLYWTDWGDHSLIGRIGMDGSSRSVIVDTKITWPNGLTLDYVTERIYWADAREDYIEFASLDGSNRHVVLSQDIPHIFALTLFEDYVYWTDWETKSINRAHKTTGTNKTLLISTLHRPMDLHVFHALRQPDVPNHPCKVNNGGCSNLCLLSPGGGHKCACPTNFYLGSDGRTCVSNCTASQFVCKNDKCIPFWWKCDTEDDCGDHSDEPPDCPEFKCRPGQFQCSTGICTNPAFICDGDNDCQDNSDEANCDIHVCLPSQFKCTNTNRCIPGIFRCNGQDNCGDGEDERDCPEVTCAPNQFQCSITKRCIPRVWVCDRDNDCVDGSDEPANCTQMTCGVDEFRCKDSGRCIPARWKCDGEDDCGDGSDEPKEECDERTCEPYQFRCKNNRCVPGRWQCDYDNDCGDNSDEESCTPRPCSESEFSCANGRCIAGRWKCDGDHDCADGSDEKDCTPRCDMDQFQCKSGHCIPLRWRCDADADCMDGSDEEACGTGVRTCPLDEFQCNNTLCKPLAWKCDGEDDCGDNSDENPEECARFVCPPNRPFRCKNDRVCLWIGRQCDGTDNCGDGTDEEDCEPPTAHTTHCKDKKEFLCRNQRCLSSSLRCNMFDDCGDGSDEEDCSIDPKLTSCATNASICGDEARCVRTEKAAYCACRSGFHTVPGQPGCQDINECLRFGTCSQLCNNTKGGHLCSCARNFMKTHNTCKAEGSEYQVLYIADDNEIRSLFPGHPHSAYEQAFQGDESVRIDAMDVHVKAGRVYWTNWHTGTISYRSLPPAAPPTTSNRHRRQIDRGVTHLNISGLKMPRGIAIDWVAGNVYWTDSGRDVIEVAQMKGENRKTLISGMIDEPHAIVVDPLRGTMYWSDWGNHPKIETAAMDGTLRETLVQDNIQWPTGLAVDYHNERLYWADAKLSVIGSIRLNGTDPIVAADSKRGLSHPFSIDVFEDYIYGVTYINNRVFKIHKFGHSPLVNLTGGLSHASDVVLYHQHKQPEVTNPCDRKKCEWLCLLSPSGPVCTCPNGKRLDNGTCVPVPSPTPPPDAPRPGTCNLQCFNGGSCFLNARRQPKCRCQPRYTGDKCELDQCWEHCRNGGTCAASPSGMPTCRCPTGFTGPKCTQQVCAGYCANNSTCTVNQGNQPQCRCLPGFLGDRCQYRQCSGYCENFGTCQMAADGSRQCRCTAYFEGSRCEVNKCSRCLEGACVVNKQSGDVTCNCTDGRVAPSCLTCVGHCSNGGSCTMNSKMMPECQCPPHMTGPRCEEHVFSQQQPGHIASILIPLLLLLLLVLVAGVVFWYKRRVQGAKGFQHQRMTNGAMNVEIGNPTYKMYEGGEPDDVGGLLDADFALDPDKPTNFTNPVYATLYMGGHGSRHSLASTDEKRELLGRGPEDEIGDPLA

Kd: 70 nM
Substance: alpha 2-macroglobulin-trypsin complex (from UniProt P01023 24-1474)
